From PMC9481563, “Structural insights into the pSer/pThr dependent regulation of the SHP2 tyrosine phosphatase in insulin and CD28 signaling” (Nature Communications, 2022)
Where no end group is shown, it is not given here. [ ]: non-standard residue; d: D form. pY = N[C@@H](Cc1ccc(OP(=O)(O)O)cc1)C(=O)O; pT = C[C@@H](OP(=O)(O)O)[C@H](N)C(=O)O; pS = N[C@@H](COP(=O)(O)O)C(=O)O

Experiments:
Test in all cases: fluorescence polarisation; competitive titration: labelled CF-ppIRS1 and protein both fixed (50-80% saturation), unlabelled competitor peptide varied; triplicates; Kd from cubic fit
Settings in all cases: both partners purified
[1] = target: T1, PIK3R1 (p85) N-terminal SH2 domain (321-433) (human, UniProt P27986 321-433)
T1 construct: PIK3R1 regulatory subunit of PI3K (p85), nSH2 domain, cloned from a HEK293T cDNA pool, UniProt P27986, residues 321-433; also called nSH2; PI3KR1 nSH2; source: E. coli BL21 (DE3), purified (Ni-NTA, anion exchange)
T1 sequence (P27986 321-433): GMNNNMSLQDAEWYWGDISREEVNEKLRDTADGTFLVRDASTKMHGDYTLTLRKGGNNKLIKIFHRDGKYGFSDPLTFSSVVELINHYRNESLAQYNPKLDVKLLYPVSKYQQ

[2] = target: T2, PIK3R1 (p85) C-terminal SH2 domain (614-724) (human, UniProt P27986 614-724)
T2 construct: PIK3R1 regulatory subunit of PI3K (p85), cSH2 domain, cloned from a HEK293T cDNA pool, UniProt P27986, residues 614-724; also called cSH2; PI3KR1 cSH2; source: E. coli BL21 (DE3), purified (Ni-NTA, anion exchange)
T2 sequence (P27986 614-724): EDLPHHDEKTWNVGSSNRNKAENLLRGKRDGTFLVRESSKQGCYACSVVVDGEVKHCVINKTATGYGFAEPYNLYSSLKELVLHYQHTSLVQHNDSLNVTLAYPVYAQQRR

[3] = target: T3, PTPRε first catalytic domain, inactive C335S mutant (107-399), MBP-tagged (human, UniProt P23469 107-399, C335S)
T3 construct: PTPRε receptor tyrosine phosphatase, first phosphatase domain, cloned from a HEK293T cDNA pool, UniProt P23469, residues 107-399; first cloned into pBH4 (N-terminal His6); also called receptor tyrosine phosphatase PTPRε; source: E. coli BL21 (DE3), purified (Ni-NTA, anion exchange)
T3 sequence (P23469 107-399 C335S): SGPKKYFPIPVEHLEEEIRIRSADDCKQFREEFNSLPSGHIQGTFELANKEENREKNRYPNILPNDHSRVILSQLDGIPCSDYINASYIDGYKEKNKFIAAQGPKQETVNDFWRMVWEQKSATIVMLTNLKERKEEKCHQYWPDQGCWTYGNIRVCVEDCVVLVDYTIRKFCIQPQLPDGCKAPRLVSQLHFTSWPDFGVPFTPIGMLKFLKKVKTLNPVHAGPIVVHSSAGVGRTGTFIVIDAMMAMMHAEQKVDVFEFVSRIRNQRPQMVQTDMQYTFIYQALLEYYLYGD

| binding result [1] | binding result [2] | binding result [3] | Binder |
| --- | --- | --- | --- |
| binds | binds | – | GRKGSGD[pY]MPMSPKS (human IRS1, 2nd YxxMSP motif around Y632, 15 amino acids; also called singly phosphorylated model peptide; pTyr peptide; source: synthetic peptide, bought: GeneScript Inc) [p0IRS1, IRS1 peptide with phosphotyrosine only (pY632)] |
| binds | binds | binds | RSRLLHSD[pY]MNMTPRR (human CD28 T-cell costimulatory receptor, cytoplasmic YMNMTP motif, 16 amino acids; also called singly Tyr phosphorylated CD28 peptide; source: synthetic peptide, bought: GeneScript Inc) [p0CD28, CD28 peptide with phosphotyrosine only (pY191)] |

The remaining lines, values behind:

| Binder | binding result [1] | binding result [2] | binding result [3] |
| --- | --- | --- | --- |
| GRKGSGD[pY]MPM[pS]PKS (human IRS1, 2nd YxxMSP motif around Y632, 15 amino acids; also called pY632-pS636 peptide; dually phosphorylated model peptide; source: synthetic peptide, bought: GeneScript Inc) [ppIRS1, IRS1 peptide dually phosphorylated (pY632 + pS636)] | binds | binds | – |
| RSRLLHSD[pY]MNM[pT]PRR (human CD28 T-cell costimulatory receptor, cytoplasmic YMNMTP motif, 16 amino acids; also called pY191-pT195 peptide; source: synthetic peptide, bought: GeneScript Inc) [ppCD28, CD28 peptide dually phosphorylated (pY191 + pT195)] | binds | binds | binds |
